B1: FLAG-GST-SALL4 (wild type) [human] / biotinylated CRBN (wild type) [modified: biotin (added by BirA during cell-free synthesis); biotin (added by BirA during cell-free synthesis)] [human] (parent)
chain 1: MSRRKQAKPQHINSEEDQGEQQPQQQTPEFADAAPAAPAAGELGAPVNHPGNDEVASEDEATVKRLRREETHVCEKCCAEFFSISEFLEHKKNCTKNPPVLIMNDSEGPVPSEDFSGAVLSHQPTSPGSKDCHRENGGSSEDMKEKPDAESVVYLKTETALPPTPQDISYLAKGKVANTNVTLQALRGTKVAVNQRSADALPAPVPGANSIPWVLEQILCLQQQQLQQIQLTEQIRIQVNMWASHALHSSGAGADTLKTLGSHMSQQVSAAVALLSQKAGSQGLSLDALKQAKLPHANIPSATSSLSPGLAPFTLKPDGTRVLPNVMSRLPSALLPQAPGSVLFQSPFSTVALDTSKKGKGKPPNISAVDVKPKDEAALYKHKCKYCSKVFGTDSSLQIHLRSHTGERPFVCSVCGHRFTTKGNLKVHFHRHPQVKANPQLFAEFQDKVAAGNGIPYALSVPDPIDEPSLSLDSKPVLVTTSVGLPQNLSSGTNPKDLTGGSLPGDLQPGPSPESEGGPTLPGVGPNYNSPRAGGFQGSGTPEPGSETLKLQQLVENIDKATTDPNECLICHRVLSCQSSLKMHYRTHTGERPFQCKICGRAFSTKGNLKTHLGVHRTNTSIKTQHSCPICQKKFTNAVMLQQHIRMHMGGQIPNTPLPENPCDFTGSEPMTVGENGSTGAICHDDVIESIDVEEVSSQEAPSSSSKVPTPLPSIHSASPTLGFAMMASLDAPGKVGPAPFNLQRQGSRENGSVESDGLTNDSSSLMGDQEYQSRSPDILETTSFQALSPANSQAESIKSKSPDAGSKAESSENSRTEMEGRSSLPSTFIRAPPTYVKVEVPGTFVGPSTLSPGMTPLLAAQPRRQAKQHGCTRCGKNFSSASALQIHERTHTGEKPFVCNICGRAFTTKGNLKVHYMTHGANNNSARRGRKLAIENTMALLGTDGKRVSEIFPKEILAPSVNVDPVVWNQYTSMLNGGLAVKTNEISVIQSGGVPTLPVSLGATSVVNNATVSKMDGSQSGISADVEKPSATDGVPKHQFPHFLEENKIAVS
chain 2: MAGEGDQQDAAHNMGNHLPLLPAESEEEDEMEVEDQDSKEAKKPNIINFDTSLPTSHTYLGADMEEFHGRTLHDDDSCQVIPVLPQVMMILIPGQTLPLQLFHPQEVSMVRNLIQKDRTFAVLAYSNVQEREAQFGTTAEIYAYREEQDFGIEIVKVKAIGRQRFKVLELRTQSDGIQQAKVQILPECVLPSTMSAVQLESLNKCQIFPSKPVSREDQCSYKWWQKYQKRKFHCANLTSWPRWLYSLYDAETLMDRIKKQLREWDENLKDDSLPSNPIDFSYRVAACLPIDDVLRIQLLKIGSAIQRLRCELDIMNKCTSLCCKQCQETEITTKNEIFSLSLCGPMAAYVNPHGYVHETLTVYKACNLNLIGRPSTEHSWFPGYAWTVAQCKICASHIGWKFTATKKDMSPQKFWGLTRSALLPTIPDTEDEISPDKVILCL
B2: FLAG-GST-IKZF1 (wild type) [not stated] / biotinylated CRBN (wild type) [modified: biotin (added by BirA during cell-free synthesis); biotin (added by BirA during cell-free synthesis)] [human] (parent)
chain 1: MDADEGQDMSQVSGKESPPVSDTPDEGDEPMPIPEDLSTTSGGQQSSKSDRVVASNVKVETQSDEENGRACEMNGEECAEDLRMLDASGEKMNGSHRDQGSSALSGVGGIRLPNGKLKCDICGIICIGPNVLMVHKRSHTGERPFQCNQCGASFTQKGNLLRHIKLHSGEKPFKCHLCNYACRRRDALTGHLRTHSVGKPHKCGYCGRSYKQRSSLEEHKERCHNYLESMGLPGTLYPVIKEETNHSEMAEDLCKIGSERSLVLDRLASNVAKRKSSMPQKFLGDKGLSDTPYDSSASYEKENEMMKSHVMDQAINNAINYLGAESLRPLVQTPPGGSEVVPVISPMYQLHKPLAEGTPRSNHSAQDSAVENLLLLSKAKLVPSEREASPSNSCQDSTDTESNNEEQRSGLIYLTNHIAPHARNGLSLKEEHRAYDLLRAASENSQDALRVVSTSGEQMKVYKCEHCRVLFLDHVMYTIHMGCHGFRDPFECNMCGYHSQDRYEFSSHITRGEHRFHMS
chain 2: B1 chain 2

Variants of: B1
Assay: AlphaScreen (AS-based interaction assay)
Details: with biotinylated CRBN (wild type) [modified: biotin (added by BirA during cell-free synthesis), (S)-thalidomide, last (highest) point of the titration, Log[(S)-Thal (µM)] = 2, signal relative to DMSO = 1, read off a plot

Variant | response (Relative AS signal)
chain 1 V411I | 75
chain 1 V411H | 20
chain 1 V411K | 7

Next, values leading:

response (Relative AS signal) | Variant
14 | chain 1 V411R
100 | chain 1 V411Q

Same assay, conditions: with biotinylated CRBN (wild type) [modified: biotin (added by BirA during cell-free synthesis), pomalidomide, last (highest) point of the titration, Log[Pom (µM)] = 2, signal relative to DMSO = 1, read off a plot

Variant | response (Relative AS signal)
chain 1 V411A | 52
chain 1 V411I | 78
chain 1 V411H | 22
chain 1 V411K | 8

Other lines, results leading:

response (Relative AS signal) | Variant
37 | chain 1 V411R
100 | chain 1 V411Q

Same assay, conditions: with biotinylated CRBN (wild type) [modified: biotin (added by BirA during cell-free synthesis), 5HP, last (highest) point of the titration, Log[5HP (µM)] = 2, signal relative to DMSO = 1, read off a plot

Variant | response (Relative AS signal)
chain 1 V411A | 26
chain 1 V411I | 51

The next lines start with the values.

response (Relative AS signal) | Variant
14 | chain 1 V411L
43 | chain 1 V411T

Same assay, conditions: with biotinylated CRBN (wild type) [modified: biotin (added by BirA during cell-free synthesis), (S)-5HT, last (highest) point of the titration, Log[(S)-5HT (µM)] = 2, signal relative to DMSO = 1, read off a plot

Variant | response (Relative AS signal)
chain 1 V411A | 29
chain 1 V411I | 63

Now from value to variant:

response (Relative AS signal) | Variant
14 | chain 1 V411L
47 | chain 1 V411T

Same assay, conditions: with biotinylated CRBN (wild type) [modified: biotin (added by BirA during cell-free synthesis), (S)-5HT, last (highest) point of the titration, Log[(S)-5HT (µM)] about 2.3, signal relative to DMSO = 1, read off a plot

Variant | response (Relative AS signal)
chain 1 V411Q | 4.5
chain 1 V411Q R418S | 4.5

Same assay, conditions: with biotinylated CRBN (wild type) [modified: biotin (added by BirA during cell-free synthesis), (S)-thalidomide, last (highest) point of the titration, Log[(S)-Thal (µM)] about 2.3, signal relative to DMSO = 1, read off a plot

Variant | response (Relative AS signal)
chain 1 V411Q | 66
chain 1 V411Q R418S | 62

Variants of: B2
Assay: AlphaScreen (AS-based interaction assay)
Details: with biotinylated CRBN (wild type) [modified: biotin (added by BirA during cell-free synthesis), (S)-5HT, last (highest) point of the titration, Log[(S)-5HT (µM)] about 2.3, signal relative to DMSO = 1, read off a plot

Variant | response (Relative AS signal)
chain 1 Q146V | 25
chain 1 Q146V S153R | 26

Same assay, conditions: with biotinylated CRBN (wild type) [modified: biotin (added by BirA during cell-free synthesis), (S)-thalidomide, last (highest) point of the titration, Log[(S)-Thal (µM)] about 2.3, signal relative to DMSO = 1, read off a plot

Variant | response (Relative AS signal)
chain 1 Q146V | 28
chain 1 Q146V S153R | 14

Reference: article PMC7490372, “Structural bases of IMiD selectivity that emerges by 5-hydroxythalidomide” (Nature Communications, 2020)
